The assay has as its target Trx-CaV1.2 JBM (mouse) (UniProt Q01815). Description: ITC. (In general: In ITC the heat of successive injections is recorded.)

Results on 4 substances are retold here after publication PMC12748787.

pKd: −log10 of the molar value. Where only a bound is given, the exact number is not on record here.

Trx-CaV1.2 JBM (mouse), sequence (Q01815 1647-1777): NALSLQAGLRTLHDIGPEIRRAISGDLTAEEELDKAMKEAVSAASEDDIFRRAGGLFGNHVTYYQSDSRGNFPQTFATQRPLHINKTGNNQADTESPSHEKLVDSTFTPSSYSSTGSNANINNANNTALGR

With “JPH2 NT A399S (A405S in mouse JPH2) (from UniProt Q9ET78 1-440) (domain or fragment)”, the fold reduction in binding affinity against the wild type is 3 fold.
The same measure, in the same setting: the result for “JPH2 NT E85K (from UniProt Q9ET78 1-440) (domain or fragment)” reads 3 fold.
By pKd is commonly meant −log10 of the Kd, conventionally taken in molar units. Read a high pKd as a low Kd. For the substance “JR-JBM chimera R160E/F165S (from UniProt Q9ET78 1-155; Q9ET78 168-440) (domain or fragment)”, the negative-log Kd (pKd) was 4.38.
Take “MBP-JPH2 NT S165F (mouse) (from UniProt Q9ET78 1-440) (domain or fragment)”: the fold decrease in binding affinity against the wild type was > 5 fold.
